Assay results published in patent US20220331423A1 (WISTAR INSTITUTE OF ANATOMY AND BIOLOGY, published 2022).

Molecular target: T1, HSV-1 glycoprotein D (gD), non-fused, expressed from AdC68gD (HSV-1, UniProt Q05059 26-394)
T1 construct: Complete gD open reading frame (from pRE4) expressed in AdC68gD-infected cells; Tested as detergent cell extract (ELISA) or on and within infected cells; also called native gD; non-fused gD
Assay: confocal microscopy of AdC68gD-infected B78-H1/3E5 (human HVEM-EGFP) cells stained with MAb to gD

T1 sequence (Q05059 26-394): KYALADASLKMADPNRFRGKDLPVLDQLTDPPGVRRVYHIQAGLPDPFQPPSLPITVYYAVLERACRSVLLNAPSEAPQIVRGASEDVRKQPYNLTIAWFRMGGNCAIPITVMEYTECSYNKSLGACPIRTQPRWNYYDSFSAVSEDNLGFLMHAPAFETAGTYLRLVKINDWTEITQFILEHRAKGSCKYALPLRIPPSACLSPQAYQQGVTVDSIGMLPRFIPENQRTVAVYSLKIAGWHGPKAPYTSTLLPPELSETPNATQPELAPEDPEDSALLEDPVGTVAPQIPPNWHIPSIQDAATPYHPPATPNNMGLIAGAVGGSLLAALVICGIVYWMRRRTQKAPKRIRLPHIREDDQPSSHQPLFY

B1: human HVEM fused to Enhanced Green Fluorescence Protein, expressed on B78H1/3E5 cells (receptor)
chain: LPSCKEDEYPVGSECCPKCSPGYRVKEACGELTGTVCEPCPPGTYIAHLNGLSKCLQCQMCDPAMGLRASRNCSRTENAVCGCSPGHFCIVQDGDHCAACRAYATSSPGQRVQKGGTESQDTLCQNCPPGTFSPNGTLEECQHQTKCSWLVTKAGAGTSSSHWVWWFLSGSLVIVIVCSTVGLIICVKRRKPRGDVVKVIVSVQRKRQEAEGEATVIEALQAPPDVTTVAVEETIPSFTGRSPNH
notes: whole, on cells; Mouse melanoma cells B78H1/3E5; also called HVEM-EGFP; HVEM on B78-H1/3E5 cells; not shown: Enhanced Green Fluorescence Protein (EGFP)
- binding result: binds
